In patent US9937235B2, “Lipidated peptides as anti-obesity agents” (USTAV ORGANICKE CHEMIE A BIOCHEMIE AKADEMIE VED CR, V.V.I, priority 2012, dated 2018):
Read-outs that look alike come from different tables or passages of the source. Where a SMILES comes first, the peptide text is derived from it. Where no end group is shown, it is not given here. [ ]: non-standard residue; d: D form. The star is where a group is joined. Palmitoyl = CCCCCCCCCCCCCCCC(=O)*; Tridecanoyl = CCCCCCCCCCCCC(=O)*; Myristoyl = CCCCCCCCCCCCCC(=O)*; NMeA = CN[C@@H](C)C(=O)O; Nle = CCCC[C@H](N)C(=O)O; Dap = NC[C@H](N)C(=O)O

B1: analog no. 41 (peptide)
peptide: Myristoyl-TPDINPAWY[NMeA]SRGIRPVGRF-NH2
SMILES: CCCCCCCCCCCCCC(=O)N[C@H](C(=O)N1CCC[C@H]1C(=O)N[C@@H](CC(=O)O)C(=O)N[C@H](C(=O)N[C@@H](CC(N)=O)C(=O)N1CCC[C@H]1C(=O)N[C@@H](C)C(=O)N[C@@H](Cc1c[nH]c2ccccc12)C(=O)N[C@@H](Cc1ccc(O)cc1)C(=O)N(C)[C@@H](C)C(=O)N[C@@H](CO)C(=O)N[C@@H](CCCNC(=N)N)C(=O)NCC(=O)N[C@H](C(=O)N[C@@H](CCCNC(=N)N)C(=O)N1CCC[C@H]1C(=O)N[C@H](C(=O)NCC(=O)N[C@@H](CCCNC(=N)N)C(=O)N[C@@H](Cc1ccccc1)C(N)=O)C(C)C)[C@@H](C)CC)[C@@H](C)CC)[C@@H](C)O
B2: analog no. 10 (peptide)
peptide: Myristoyl-TPDINPAWYTGRGIRPVGRF-NH2
SMILES: CCCCCCCCCCCCCC(=O)N[C@H](C(=O)N1CCC[C@H]1C(=O)N[C@@H](CC(=O)O)C(=O)N[C@H](C(=O)N[C@@H](CC(N)=O)C(=O)N1CCC[C@H]1C(=O)N[C@@H](C)C(=O)N[C@@H](Cc1c[nH]c2ccccc12)C(=O)N[C@@H](Cc1ccc(O)cc1)C(=O)N[C@H](C(=O)NCC(=O)N[C@@H](CCCNC(=N)N)C(=O)NCC(=O)N[C@H](C(=O)N[C@@H](CCCNC(=N)N)C(=O)N1CCC[C@H]1C(=O)N[C@H](C(=O)NCC(=O)N[C@@H](CCCNC(=N)N)C(=O)N[C@@H](Cc1ccccc1)C(N)=O)C(C)C)[C@@H](C)CC)[C@@H](C)O)[C@@H](C)CC)[C@@H](C)O
notes: myristoylated rat PrRP20
B3: analog no. 4 (peptide)
peptide: [Dap](Tridecanoyl)RAHQHS[Nle]ETRTPDINPAWYTGRGIRPVGRF-NH2
modifications: N-terminus assumed
SMILES: CCCCCCCCCCCCC(=O)NC[C@H](N)C(=O)N[C@@H](CCCNC(=N)N)C(=O)N[C@@H](C)C(=O)N[C@@H](Cc1c[nH]cn1)C(=O)N[C@@H](CCC(N)=O)C(=O)N[C@@H](Cc1c[nH]cn1)C(=O)N[C@@H](CO)C(=O)N[C@@H](CCCC)C(=O)N[C@@H](CCC(=O)O)C(=O)N[C@H](C(=O)N[C@@H](CCCNC(=N)N)C(=O)N[C@H](C(=O)N1CCC[C@H]1C(=O)N[C@@H](CC(=O)O)C(=O)N[C@H](C(=O)N[C@@H](CC(N)=O)C(=O)N1CCC[C@H]1C(=O)N[C@@H](C)C(=O)N[C@@H](Cc1c[nH]c2ccccc12)C(=O)N[C@@H](Cc1ccc(O)cc1)C(=O)N[C@H](C(=O)NCC(=O)N[C@@H](CCCNC(=N)N)C(=O)NCC(=O)N[C@H](C(=O)N[C@@H](CCCNC(=N)N)C(=O)N1CCC[C@H]1C(=O)N[C@H](C(=O)NCC(=O)N[C@@H](CCCNC(=N)N)C(=O)N[C@@H](Cc1ccccc1)C(N)=O)C(C)C)[C@@H](C)CC)[C@@H](C)O)[C@@H](C)CC)[C@@H](C)O)[C@@H](C)O
notes: analog of rat PrRP31

How the values were obtained:
[1] = biological target: T1, rat PrRP receptor (GPR10) in RC-4B/C cells (Rattus norvegicus, UniProt Q64121); test: Competitive binding to rat pituitary RC-4B/C cells
T1 construct: host or cells: RC-4B/C rat pituitary cell line
T1 sequence (Q64121 1-370): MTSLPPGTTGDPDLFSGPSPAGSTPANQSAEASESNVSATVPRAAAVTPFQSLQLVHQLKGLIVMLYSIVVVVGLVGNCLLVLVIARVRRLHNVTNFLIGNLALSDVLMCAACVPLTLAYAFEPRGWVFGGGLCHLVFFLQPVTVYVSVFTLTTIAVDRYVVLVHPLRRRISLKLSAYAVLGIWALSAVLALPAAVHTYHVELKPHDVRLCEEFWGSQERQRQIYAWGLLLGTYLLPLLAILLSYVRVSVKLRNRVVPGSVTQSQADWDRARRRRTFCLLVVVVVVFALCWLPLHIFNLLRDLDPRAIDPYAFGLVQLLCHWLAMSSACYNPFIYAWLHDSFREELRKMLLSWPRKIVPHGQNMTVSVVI
Experimental: Competitive binding experiments were performed according to Motulsky and Neubig (Motulsky, A., et al., “Analyzing radioligand binding data,” Curr Protoc Neurosci, Chapter 7, Unit 7.5, 2002). The rat pituitary cell line RC-4B/C (ATCC, Manassas, USA) was grown on 24-well plates which had their bottom coated with polyethyleneimine. The cells were grown to the optimal density of 300-450 thousand per well. […] Plates were incubated for 60 minutes at room temperature. After incubation, the cells were solubilized in 0.1 mol/l solution of NaOH and the radioactivity bound to the cells was counted using a γ-counter. The experiments were performed in duplicate and repeated at least three times. For evaluation of competitive binding experiments, the program Graph Pad Prism Software (San Diego, Calif., USA) was used. A method of nonlinear regression assuming one-site binding was used.

fasted C57BL/6 mice = test: Food intake in fasted mice after SC administration; format: in vivo, mouse; settings: fasted C57BL/6 mice, 5 mg/kg SC, 45 min
In short: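 Male C57BL/6 mice, food-deprived 17 h, received saline, PrRP or lipidated analogs either SC at 1-10 mg/kg or ICV into the third ventricle at 4 nmol/mouse.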

[2] = biological target: T2, rat PrRP receptor in RC-4B/C cells (rat, UniProt Q64121 1-370); test: competition with 125I-rat PrRP31 on RC-4B/C cells
T2 construct: whole, on cells; also called the rat receptor; GPR10
T2 sequence (looked up): T1 sequence (Q64121 1-370)

[3] = biological target: T3, human PrRP receptor, GPR10, transfected in CHO cells (human, UniProt P49683 1-370); test: competition with 125I-human PrRP31 on CHO cells with transfected human GPR10
T3 construct: whole, on cells; also called human GPR10 receptor; the human receptor GPR10 in CHO cells
T3 sequence (looked up): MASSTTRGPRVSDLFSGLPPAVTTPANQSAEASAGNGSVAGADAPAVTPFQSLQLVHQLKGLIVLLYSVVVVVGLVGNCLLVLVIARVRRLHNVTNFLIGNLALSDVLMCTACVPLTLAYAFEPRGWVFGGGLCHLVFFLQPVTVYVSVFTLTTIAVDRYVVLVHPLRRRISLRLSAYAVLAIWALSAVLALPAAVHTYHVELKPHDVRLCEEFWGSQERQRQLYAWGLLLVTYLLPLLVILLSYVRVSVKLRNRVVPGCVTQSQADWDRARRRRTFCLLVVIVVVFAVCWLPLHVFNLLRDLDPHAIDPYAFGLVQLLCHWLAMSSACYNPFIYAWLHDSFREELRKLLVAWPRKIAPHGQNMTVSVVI
Experimental: CHO cells with transfected human PrRP receptor, GPR10 (Perkin Elmer, USA) were grown on 24-well plates coated with polyethyleneimine. The cells were grown to the optimal density of 40-80 thousand cells per well.
(§1) Plates were incubated for 60 minutes at room temperature. After incubation, the cells were solubilized in 0.1 mol/l solution of NaOH and the radioactivity bound to the cells was counted using a γ-counter. The experiments were performed in duplicate and repeated at least three times.

[4] = biological target: T2, rat PrRP receptor in RC-4B/C cells; test: competition with 125I-rat PrRP31 on RC-4B/C cells; remark: listed apart in the source
Experimental: (§2) The rat pituitary cell line RC-4B/C (ATCC, Manassas, USA) was grown on 24-well plates which had their bottom coated with polyethyleneimine. The cells were grown to the optimal density of 300-450 thousand per well.
as §1

[5] = biological target: T2, rat PrRP receptor in RC-4B/C cells; test: competition with 125I-rat PrRP31 on RC-4B/C cells; Ki by Cheng-Prusoff
Experimental: as §2, §1
For evaluation of competitive binding experiments, the program Graph Pad Prism Software (San Diego, Calif., USA) was used. A method of nonlinear regression assuming one-site binding was used.

[6] = rat RC-4B/C cells, Table 5, read-out: C-4B/C cells ^25I-rat PrRP31 Ki

Molecule	Ki [1, 6] [pM]	% of PrRP31 binding [4] [%]	Ki [5] [pM]	further results
CCCCCCCCCCCCCC(=O)N[C@H](C(=O)N1CCC[C@H]1C(=O)N[C@@H](CC(=O)O)C(=O)N[C@H](C(=O)N[C@@H](CC(N)=O)C(=O)N1CCC[C@H]1C(=O)N[C@@H](C)C(=O)N[C@@H](Cc1c[nH]c2ccccc12)C(=O)N[C@@H](Cc1ccc(O)cc1)C(=O)N[C@@H](C)C(=O)N[C@@H](CO)C(=O)N[C@@H](CCCNC(=N)N)C(=O)NCC(=O)N[C@H](C(=O)N[C@@H](CCCNC(=N)N)C(=O)N1CCC[C@H]1C(=O)N[C@H](C(=O)NCC(=O)N[C@@H](CCCNC(=N)N)C(=O)N[C@@H](Cc1ccccc1)C(N)=O)C(C)C)[C@@H](C)CC)[C@@H](C)CC)[C@@H](C)O [Analog 13] (Myristoyl-TPDINPAWYASRGIRPVGRF-NH2)				Ki ([1]; ^125I-rat PrRP31, RC-4B/C cells, Table 3, read-out: ^125I-rat PrRP31 Ki): 410 ± 130 pM
CCCCCCCCCCCCCCCC(=O)N[C@@H](CO)C(=O)N[C@@H](CCCNC(=N)N)C(=O)N[C@@H](C)C(=O)N[C@@H](Cc1c[nH]cn1)C(=O)N[C@@H](CCC(N)=O)C(=O)N[C@@H](Cc1c[nH]cn1)C(=O)N[C@@H](CO)C(=O)N[C@@H](CCCC)C(=O)N[C@@H](CCC(=O)O)C(=O)N[C@H](C(=O)N[C@@H](CCCNC(=N)N)C(=O)N[C@H](C(=O)N1CCC[C@H]1C(=O)N[C@@H](CC(=O)O)C(=O)N[C@H](C(=O)N[C@@H](CC(N)=O)C(=O)N1CCC[C@H]1C(=O)N[C@@H](C)C(=O)N[C@@H](Cc1c[nH]c2ccccc12)C(=O)N[C@@H](Cc1ccc(O)cc1)C(=O)N[C@H](C(=O)NCC(=O)N[C@@H](CCCNC(=N)N)C(=O)NCC(=O)N[C@H](C(=O)N[C@@H](CCCNC(=N)N)C(=O)N1CCC[C@H]1C(=O)N[C@H](C(=O)NCC(=O)N[C@@H](CCCNC(=N)N)C(=O)N[C@@H](Cc1ccccc1)C(N)=O)C(C)C)[C@@H](C)CC)[C@@H](C)O)[C@@H](C)CC)[C@@H](C)O)[C@@H](C)O [Analog 19] (Palmitoyl-SRAHQHS[Nle]ETRTPDINPAWYTGRGIRPVGRF-NH2)	510 ± 160			Food intake in mice (5 mg/kg SC) % saline-treated group (45 min) (fasted C57BL/6 mice): 2%
CCCCCCCCCCCCCC(=O)N[C@H](C(=O)N1CCC[C@H]1C(=O)N[C@@H](CC(=O)O)C(=O)N[C@H](C(=O)N[C@@H](CC(N)=O)C(=O)N1CCC[C@H]1C(=O)N[C@@H](C)C(=O)N[C@@H](Cc1c[nH]c2ccccc12)C(=O)N[C@@H](Cc1ccc(O)cc1)C(=O)N(C)[C@@H](C)C(=O)N[C@@H](CO)C(=O)N[C@@H](CCCNC(=N)N)C(=O)NCC(=O)N[C@H](C(=O)N[C@@H](CCCNC(=N)N)C(=O)N1CCC[C@H]1C(=O)N[C@H](C(=O)NCC(=O)N[C@@H](CCCNC(=N)N)C(=O)N[C@@H](Cc1ccccc1)C(N)=O)C(C)C)[C@@H](C)CC)[C@@H](C)CC)[C@@H](C)O [Analog 41] (Myristoyl-TPDINPAWY[NMeA]SRGIRPVGRF-NH2)	460 ± 50			
CCCCCCCCCCCCCCCC(=O)N[C@@H](CO)C(=O)N[C@@H](CCCNC(=N)N)C(=O)N[C@@H](C)C(=O)N[C@@H](Cc1c[nH]cn1)C(=O)N[C@@H](CCC(N)=O)C(=O)N[C@@H](Cc1c[nH]cn1)C(=O)N[C@@H](CO)C(=O)N[C@@H](CCSC)C(=O)N[C@@H](CCC(=O)O)C(=O)N[C@H](C(=O)N[C@@H](CCCNC(=N)N)C(=O)N[C@H](C(=O)N1CCC[C@H]1C(=O)N[C@@H](CC(=O)O)C(=O)N[C@H](C(=O)N[C@@H](CC(N)=O)C(=O)N1CCC[C@H]1C(=O)N[C@@H](C)C(=O)N[C@@H](Cc1c[nH]c2ccccc12)C(=O)N[C@@H](Cc1ccc(O)cc1)C(=O)N[C@H](C(=O)NCC(=O)N[C@@H](CCCNC(=N)N)C(=O)NCC(=O)N[C@H](C(=O)N[C@@H](CCCNC(=N)N)C(=O)N1CCC[C@H]1C(=O)N[C@H](C(=O)NCC(=O)N[C@@H](CCCNC(=N)N)C(=O)N[C@@H](Cc1ccccc1)C(N)=O)C(C)C)[C@@H](C)CC)[C@@H](C)O)[C@@H](C)CC)[C@@H](C)O)[C@@H](C)O [Analog 61] (Palmitoyl-SRAHQHSMETRTPDINPAWYTGRGIRPVGRF-NH2)	410 ± 120			Food intake in mice (5 mg/kg SC) % saline-treated group (45 min) (fasted C57BL/6 mice): 2%
B1				Ki [2]: 460 pM; Ki [3]: 2100 pM
TPDINPAWYTGRGIRPVGRF-NH2 [Rat PrRP20]		143	3440	
B2		632	780	
B3		967	510	
